# Assay results reported in the supplement of paper PMC12764529.
# ± gives the half width of the 95% confidence interval.
# Columns and labels:
# [1] = folding stability dG unfold from chymotrypsin proteolysis; higher = more stable
# Procedure, shortened: (§1)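 Digests were run with trypsin and chymotrypsin at 11 concentrations in threefold dilutions, plus a no-protease condition, on designed mini-proteins in a PA-tagged cDNA display construct. The mini-proteins were under 80 residues, had no cysteine, and were kept only when AlphaFold2 dimer inter-PAE was above 15. After sequencing, Bayesian fitting of the counts gave K50, from which unfolding free energy was derived against a sequence-predicted unfolded-state K50 and a shared folded-state K50, per protease or combined.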
# [2] = folding stability dG unfold from trypsin proteolysis; higher = more stable
# Procedure, shortened: as §1
# [3] = folding stability dG unfold (combined trypsin and chymotrypsin); higher = more stable
# Procedure, shortened: as §1
Sequence,folding stability dG unfold [1],folding stability dG unfold [2],folding stability dG unfold [3]
SAGGSAGGSMSTSLSLSSAPGVSVVTTAHPDSTVVTEQPPDGSRVVRVLDPAGELVAEEAVAPSAGGSAGGS [r12_471_JUSTAS],-0.302 ± 0.16 kcal/mol,-0.623 ± 0.36 kcal/mol,-0.33 ± 0.15 kcal/mol
SAGGSAGGSKPEPVKPVKLKVKLPGGEYEVEAVELPKGVVLVRNPADNSLAVITPDRLVVLPLSAGGSAGGS [r12_737_TrMRF],0.0823 ± 0.14 kcal/mol,0.754 ± 0.024 kcal/mol,0.468 ± 0.076 kcal/mol
SMVRITVYRNGKELSEEELRELAAELERETGRRITVEELARRLAARPGLTVRIEVFNEDGELVEERELRVSA [r9_1045_TrROS_Hall],5.14 ± 0.11 kcal/mol,3.42 ± 0.058 kcal/mol,4.71 ± 0.076 kcal/mol
SAGGSAGGPYYIMVDIEMYNPQDGKERNFTLMIPVPPGDLPKIKEELLSAGFPIKIKNISIMPPSAGGSAGG [r6_151_TrROS],2.88 ± 0.062 kcal/mol,2.62 ± 0.14 kcal/mol,2.74 ± 0.18 kcal/mol
SAGGSAGGVISEEEIEAKAEEAKAEAIAAGLESKEVTITSPSGKVYKITVDVNSITIEKSPAAGSAGGSAGG [r6_270_JUSTAS],0.743 ± 0.088 kcal/mol,0.879 ± 0.088 kcal/mol,0.832 ± 0.16 kcal/mol
SMTTEEKVEVSVTVTPDPNSDNVTLTLTITKRTYAKDENGNWTEVSTETSTITVTLSPEEAAKLAAELLSSA [r9_642_JUSTAS],4.52 ± 0.099 kcal/mol,3.75 ± 0.2 kcal/mol,4.34 ± 0.17 kcal/mol
SAGGSAGGSAGGSSEPVVILVPVLPDAEEAVVDIGGHPALVKRFPDSPLAAITVPKELLSAGGSAGGSAGGS [r4_430_TrMRF],-0.581 ± 0.048 kcal/mol,0.0985 ± 0.033 kcal/mol,-0.149 ± 0.066 kcal/mol
SAGKIKVYYDPKLGRIIEIPLPNGKRIRIYLPKNKLIIVAEDPEGNKAIPIEIETKIGDIIKIIKEIAGSAG [r5_820_TrMRF],3.57 ± 0.11 kcal/mol,2.9 ± 0.075 kcal/mol,3.16 ± 0.18 kcal/mol
SAGGMTIELTIVAETEEEAEKAAEELARKLAELYPDLKVKVTVEKVEVKDEETGKTYLVYKVRIEIEPSAGG [r13_545_TrROS_Hall],4.96 ± 0.11 kcal/mol,4.47 ± 0.19 kcal/mol,4.95 ± 0.11 kcal/mol
SAGGSAGGSTALVYKNGVTVTFPVFFPDTAPAVVTLSIPSPEEAAAAVAALRAAGHAVTVEPLASAGGSAGG [r6_872_JUSTAS],1.48 ± 0.048 kcal/mol,0.96 ± 0.012 kcal/mol,1.29 ± 0.031 kcal/mol
SAGGEFEVYRVKSPDSVVTVTVLPDRVVVNLTDEKNPKVVPIPYPPGHPPTLEDVLALLKSLGFKVEPSAGG [r13_687_TrMRF],1.65 ± 0.043 kcal/mol,1.85 ± 0.033 kcal/mol,1.79 ± 0.041 kcal/mol
SAGKLVLKPGETVEIGDMTIHFHPDGRVSATFPDGRSAAIRVTVDTDTDVVGFEFVEEHPDVGHTDAPGSAG [r5_33_TrMRF],1.12 ± 0.057 kcal/mol,1.74 ± 0.1 kcal/mol,1.47 ± 0.11 kcal/mol
SALEEEVKKRAEEIAQEIKEKFPNVKEKVVEIELPLPNGTKLKATVTISRSINEKGIEYKIKIEVSEGLSAG [r14_788_JUSTAS],3.99 ± 0.12 kcal/mol,3.22 ± 0.081 kcal/mol,3.68 ± 0.17 kcal/mol
SAGGSAGGSAGGSADKNGYVKIPITVFTMERYGNGQPKMETVKVEIYVPPGESIEDLLQSAGGSAGGSAGGS [r4_283_TrROS],0.166 ± 0.32 kcal/mol,0.0466 ± 0.19 kcal/mol,0.247 ± 0.22 kcal/mol
SAGGMTTVTTTFTMSSEELKKFLEEKFGREVTKEEIIELIPKEKKIDVSESPQPNGTVKYTITITIEKSAGG [r13_869_JUSTAS],2.61 ± 0.044 kcal/mol,1.99 ± 0.099 kcal/mol,2.44 ± 0.16 kcal/mol
SALKGLKITEIKEVTNEDGSKSLVVRVDGYLLVFDLDTKKLTLVPLPPVTVTVTVYEKKADPNKPEYKKKSA [r9_1065_TrROS_Hall],3.15 ± 0.056 kcal/mol,1.71 ± 0.042 kcal/mol,2.77 ± 0.16 kcal/mol
SAGGMKIKIEVIDPDGKKRVIEIDASTPEEIKAALDALPPGAVVRIVVPSPELREALKEAGVDEVVELSAGG [r13_476_TrROS_Hall],2.77 ± 0.069 kcal/mol,4.37 ± 0.23 kcal/mol,3.87 ± 0.2 kcal/mol
GFEVTAEIEVYEDPESGAKVVKVTIPVKNGDPEVLEKAAKELAKKLFGPGAKFDPKIDPETGRVEVTGVLAS [r1_273_TrMRF],1.57 ± 0.07 kcal/mol,0.942 ± 0.046 kcal/mol,1.38 ± 0.13 kcal/mol
SAGGSAGGMVIHEIEVESPDPEKAEEEAKARAEEIRKALEEEEGGIPGEVKFVPTPEEDPLLLLSAGGSAGG [r6_23_JUSTAS],0.834 ± 0.075 kcal/mol,1.99 ± 0.13 kcal/mol,1.43 ± 0.13 kcal/mol
SAGGSAGGKKLEELKEKLKKLKPKPELEVEIKIVMSKEEAEKLAKELEKLPNIKKVRVEILEPDSAGGSAGG [r6_284_TrROS_Hall],-0.0934 ± 0.11 kcal/mol,-0.155 ± 0.069 kcal/mol,0.0502 ± 0.17 kcal/mol
SAGGSAGGSAGPEVRIELERDEDGRLRLRATFKLEDGKEVRVEVEFDLKTKKLTVKIEPVSAGGSAGGSAGG [r11_107_TrROS_Hall],4.8 ± 0.41 kcal/mol,3.83 ± 0.19 kcal/mol,4.63 ± 0.39 kcal/mol
